Results published in patent publication US20060083734A1, “Composition and method for repairing nerve damage and enhancing functional recovery of nerve” (priority 2004, published 2006).

Tests used:
Format in all cases: in vivo, rat
MCA occluded rats [1] = experiment: Accelerating rotarod test after FCI injury; settings: topical GDNF 1 μg
Experimental: (§1) Animals: The example conforms to the Guide for the Care and Use of Laboratory Animals, published by the US National Institutes of Health (NIH publication NO. 85-23, revised 1996). Male Long-Evans rats (National Lab. Animal Breeding and Research Center) weighing 300-350 g were used in this study. These animals were housed in a room with controlled temperature (24±1° C.) and humidity (55±5%) under a 12:12 h light-dark cycle. They were allowed free access to food and water.
(§2) Surgical procedure: The technique was a modification of the method of Huang et al (Huang S S, Tsai S K, Chih C L, Chiang L Y, Hsieh H M, Teng C M, Tsai M C. Neuroprotective effect of hexasulfobutylated C60 on rats subjected to focal cerebral ischemia. Free Radic Biol Med. 2001;30:643-649). […]
The accelerating rotarod was used to assess motor deficit following ischemic injury in rats (Hamm R J, Pike B R, O'Dell D M, Lyeth B G, Jenkins L W. The rotarod test: an evaluation of its effectiveness in assessing motor deficits following traumatic brain injury. J Neurotrauma. 1994; 11:187-196). The rats were placed on rungs of the accelerating rotarod and the time the animals remained on the rotarod was measured. […] The time in seconds at which each animal fell off the rungs was recorded. […]
(§3) Statistics. Data are expressed as mean±standard error of mean (S.E.M.). […]

MCA occluded rats [2] = experiment: Grasping power test after FCI injury; settings: topical GDNF 1 μg
Experimental: as §1, §2
The grasping power test was a modification of the method of Bertelli et al (Bertelli J A, Mira J C. The grasping test: a simple behavioral method for objective quantitative assessment of peripheral nerve regeneration in the rat. J Neurosci Methods. 1995;59:151-155). […] Rats were allowed to grasp the bar while being lifted by the tail with increasing firmness until they loosened their grip and the grasping power was scored.
as §3

MCA occluded rats [3] = experiment: Infarct volume analysis by TTC staining after MCA occlusion and reperfusion; settings: Long-Evans rats, 1 hr MCA occlusion, end of 4th week after FCI injury, topical GDNF 1 μg, mean±SEM, n=6
Experimental: as §1
Surgical procedure: The technique was a modification of the method of Huang et al (Huang S S, Tsai S K, Chih C L, Chiang L Y, Hsieh H M, Teng C M, Tsai M C. Neuroprotective effect of hexasulfobutylated C60 on rats subjected to focal cerebral ischemia. Free Radic Biol Med. 2001;30:643-649). In brief, each male Long-Evans rat was anesthetized by inhalation of a nitrous oxide/oxygen/halothane (69%:30%:1%) mixture during surgical preparation. Body temperature was maintained during surgery at 37±0.5° C. with a heating pad servo-controlled by a rectal probe. […] Measurements were performed before, during and right after unilateral MCA occlusion.
Focal ischemic infarcts were produced in the right lateral cerebral cortex in the territory of the MCA. Both common carotid arteries were exposed by midline anterior cervical incision. […]

[4] = end of 1st week after FCI injury
[5] = end of 4th week after FCI injury

B1: Glial cell line-derived neurotrophic factor (protein, UniProt P39905 78-211, looked up)
Glial cell line-derived …: SPDKQMAVLPRRERNRQAAAANPENSRGKGRRGQRGKNRGCVLTAIHLNVTDLGLGYETKEELIFRYCSGSCDAAETTYDKILKNLSRNRRLVSDKVGQACCRPIAFDDDLSFLDDNLVYHILRKHSAKRCGCI
notes: GDNF (1 μg) dissolved in HBSS solution, topically applied
- mean latency to stay on the rotarod, of baseline (MCA occluded rats [1]; [4]): 50.3%
- mean latency to stay on the rotarod, of baseline (MCA occluded rats [1]; [5]): 67.3%
- mean value of grasping power, of baseline (MCA occluded rats [2]; [4]): 71.7%
- mean value of grasping power, of baseline (MCA occluded rats [2]; [5]): 97.6%
- infarct volume (MCA occluded rats [3]): 108.0±12.1 mm^3
